From the DeepSol protein solubility set come the findings set out here.

The nature of the series: soluble on expression in E. coli; label from the status in PepcDB or PDB records.
Turning to “GVSKEEYKDVETAKKEKEQLGELMEPALGYVVKVPVSSFENKKVDISDIEVITNGNLDDVPYKANSSKYNYPDIKTKDSSLQYVRSGYVIDGEHSGSNEKGYVYYKGNSPAKELPVNQLLTYTGSWDFTSNANLNNEEGRPNYLNDDYYTKFIGKRVGLVSGDAKPAKHKYTSQFEVDFATKKMTGKLSDKEKTIYTVNADIRGNRFTGAATASDKNKGKGESYNFFSADSQSLEGGFYGPKAEEMAGKFVANDKSLFAVFSAKHNGSNVDTVRIIDASKIDLTNFSISELNNFGDASVLIIDGKKIKLAGSGFTNKHTIEINGKTMVAVACCSNLEYMKFGQLWQQAEGGKPENNSLFLQGERTATDKMPKGGNYKYIGTWDAQVSKENNWVATADDDRKAGYRTEFDVDFGNKNLSGKLFDKNGVNPVFTVDPKIDGNGFTGKAKTSDAGFALDSGSSRYENVKFNDVAVSGGFYGPTAAELGGQFHHKSENGSVGAVFGAKQQVKK”, the “soluble on expression in E. coli” value is listed as “soluble”.
As for “MMNEYRFHLEKYRLGNRYTCPNCERKRCFTRYIDDEGEVSFPDNVGKCDHEHSCGYHYTPKDYFREHPDFLSKDKLPYPTRGNTQPKVVEKPISYIANAIMERSLSHYGINPLYQYLSKVFGEQETERLMKMYHVGTSYKWGGSTIYWQVDKDDKVRTGKVMLYNPKDGHRVKEPRSYVGWAHAFLHLPDFNLCQCFFGEHLLAQHPTMSVAIVESEKTAIIASHFIPNFIWLATGGMHGCLNQIAVKVLGGRDIILFPDLGATDKWKSKIPLLQSVCKRVVISNILEDNATDEQKTKGLDIADFLLMAETPQMALQRLIKQHPPLKHLIDCLGLVLVEES”, the “soluble on expression in E. coli” value is recorded as “not soluble”.
For “MSLSFSAKVKGEICRYIDISKEEALAQISAIMKVCGTLAFSGRQISFKMTTENPASARLMFTILKDYFDIHAKLMVKKSNSLKKNNIYMVVVTEEMGVKKLLEITGILREIDGIMSLDYHIDENLVDTEEKKKAYIRGAFIGGGSISNPEKTYHLEFVTHSQEYAEDLGKLINTFGLKAKVIQRKNSYIVYIKEGEQIVDLLNIIGAHTALLELENIRIMKEMRNNVNRLVNCETANLSKTVNAAVRQVESIKLIEREIGLARLPKNLREVAELRLTYPEESLKELGEMLEPPVGKSGVNHRLRKIEKIAEELRTGNEGHHHHHH”, the “soluble on expression in E. coli” value is on record as “soluble”.
For “MDRLQLYESKKLRRETPLSPLLRIFAGQSVHNHRPMYFRDVAGLEDLKTYLRRTAQTRQIAHAQLFAGEEGGGAFPLALAYARYLNCQMPTDTDACGHCPSCVKYDALAHPDLFFVYPVVNASSSPAPSDDYIRQWREMLGSESYFTPADWLEYIKAGNSQPIIYSKEAEAVEQKLSFRIYEASYRVVMIWQPERMNEAMANKLLKLIEEPPEHTLFFMISSEPDKVLGTIRSRTQLINVRLLHEIEIVEALSRNNQGNTADIIRIAHLAEGNYRRAMDLYRGEWADRDNFVLMGRMMGSIIKGDPSKMRPVADELAALGRVSQIGFLTYCLRLFRELYISRVGVAKLNYLSPEEESFVDMLSGGITGQNIRPVMEEVELAIRHIRQNGNGRMIFFDLLLRLTAALAPALRAKGLK”, the “soluble on expression in E. coli” value was “not soluble”.
The entry for “MYSGARQGVISGKVTHHNEVFYEFFDKDYKYLFGKVKDIFTDVGAWVEYNVEKVQSHPKNCLHFAQNVNTEVKRTNAPTCDVFSSNRFQFDVREFNKVDFFQFDNADRQLSFKGTIRFNSNKNQFYHEYYGDVLVGEAEKLIRFGINEIDVMMNLYRSDEYTRGPHWYVKHYINKGKSYNINGYLSINGFVLRGPGGVVRNKNQVNIPPDALRPNNPVPNLSNGTSSQELAAAPNRNNFPTYATQRPRRNSDWDDEEPQTTAAPAGTSNSTAAASRPQVGDGKTGFRAFGGDAAPQSRGFDDGAIQRRAFGGLTTAPAAAPNRNNFPTYATQRPRRNSDWDDEDPQTTAAPAGTFNSAAASFRPQVGNGKAGSRAFGGDTAPQRSGLDDGATQRRAFEGLTIAPAAASNRNSFPTFATQRPRRNSDWGDEEPETTVAPAGKSNSTAAASRPQVGNGKTGSRPFGGDTAPQRRGLDDGAIQRRAFGGLTTAPAAAPNQNNFPTFATQRPRRNSDWDDEEPQATDAPAGTFNSAAASFRPQVGNGKAGSRAFGGDTAPQTSGLDDGAIERRAFGALATAPREVVLGGERAAGQLRPRGPESTIQPRRVPQSRQFGGVSATSNDPTTPEPRRINETPRVLLPPQSKGRRVDS” is “not soluble”; for “MGSDKIHHHHHHMTAATSVRAQAREEDLSVKEILDSRWFQPEMFKTLDYVKGFVGAKVIFQMLKLGVFDDLLAGKTLEEIASGRSLDPYLLRTVFEYLSVEGLLVKEGRGGGASFRLSDYGSRIKHYEGWFNILIGGYDNIFSNIGAMLEEGIGGYKRDGKWVGVGSCQISKYDTIPITKAFIESVKPDAKQIVDFGCGNALYLCTLAKELGDIKAVGIEPDTSAYEAGLKKVAEMGLQDQVRLVNVDALDYEIDEQPDFILFGFVLQEIIAQIGRPAFIEYLRKLGRKFADSYLMVMEVDYDIDNREVMHSPMGRGYYNPYFLLHPFTNQLLLPKREWDEIFAQAGYDVVRDEVTSPKADPSGFGICYVLKYRGAHC” it is “not soluble”; for “MGRKVKPLASMKKHLTNDERDQRKDAEKALFDYPSLDLTPPDWLHDRALTEWQRVAPYLKANTPISELDRAMLASYCRAYATVQTCENDIRKNGLVQTNQKSGVRKPNPYVALQSQAMKDVKALANDLGMSLSSRARMELNKQKDETPEDTFEAMLS” it is “not soluble”.
Consider “MSQIMYNYPAMMAHAGDMAGYAGTLQSLGADIASEQAVLSSAWQGDTGITYQGWQTQWNQALEDLVRAYQSMSGTHESNTMAMLARDGAEAAKWGG”, for which the “soluble on expression in E. coli” value is given as “soluble”.
“MGSDKIHHHHHHVKELHESSTIISFKEHTDVNADSILELSFLKLQTKDSCLVKNVGLIRELNNCLLILDSANSNLYVFNKSGAFVNQIGQKGSGPGEYILLSSFFVDNNKNYIAAIDIAQDKVLYYNATDFSFLYERRLPFSTSCCLQLEDGNLLWNSREYTDSKLSDFYFVVTDSLFDIIDYKMNKEFKSGYTTGPSQMIYKVGTNVFAYTPFDLTIYRVGTSEIVPAHSFSFEGTDIPSLDFLNKTSNQGNSNYLYDLIQSDYISYYCVEETERDLFVCYMKNKEKYIGLYDKNTDRTYNYPIKIFQDQLKVGELNYFSIGSVDDYHVAPLDVLSLKDMAGNGYVFDDKLSELLTISNEEDNSILLFVRIKK”: the “soluble on expression in E. coli” value is “not soluble”.
The result for “MRHAVHQELIDTNPAANLGGVTTPPVRRHYPALPLERLPELLERIGAYHQGRELTRHAVLLMLHVFIRSSELRFARWSEIDFTNRVWTIPATREPIIGVRYSGRGAKMRMPHIVPLSEQSIAILKQIKDITGNNELIFPGDHNPYKPMCENTVNKALRVMGYDTKKDICGHGFRAMACSALMESGLWAKDAVERQMSHQERNTVRMAYIHKAEHLEARKAMMQWWSDYLEACRESYAPPYTIGKNKFIP” reads “not soluble”.
The result for “MGSDKIHHHHHHMKTIKGPGIFLAQFIGTQAPFNTLAGIAQWAAGLGYKALQIPCNHPAIFDVERAAASQTYCDEVSGILAEHGLVISELSTHLEGQLVAVHPAYDAAFDAFAPAALHGDPQARQRWAVEKVRQAAVASGRLGLQAHATFSGALAWPFFYPWPPHNQPLLDEAFAELARRWRPLLDLFDEQGVDVCYEIHPGEDLHDGVTFERFLALVDNHPRCNMLYDPSHLHLQQMDYLAYIDIYHARIKAFHVKDAEFRRNGRNGVYGGYQPWQQRAGRFRSPGDGQIDFKGVFSKLTEYDFAGWAVLEWECCLKDSETGAREGSEFIRRHIIPVAGRAFDDFAAGGRE” reads “not soluble”.
Consider “MSQTILFVCATGIATSTAVTEKVMEYCKEQGLNVNYSQTNVASLPGNTDGVALVVSTTKVPYELDVPVVNGLPIITGIGEEKVLAQIVSILKK”, for which the “soluble on expression in E. coli” value is listed as “soluble”.
Turning to “MPNQNFNAQLAEAISALNTPNFTPKLMSVIHSIFDFDCAIILGYREGKHPIYLYDSIENERELLFQRYLTNSFQNDPFFQNLNQHKQQGIFTLKDVAKKGIEYQTYRKQFYDQTGWKDELSMLVEIESGRWVILYFGCLREGKRFSAAQINNLRSHFSVLQSLCQQHWKQAEFNLSEPVVRPDAYTGNMKVAIEQALSSFGIE”, the “soluble on expression in E. coli” value is listed as “not soluble”.
As for “GSRRLLEETLAPFRLNHDQLAAVQAQMRKAMAKGLRGEASSLRMLPTFVRATPDGSERGDFLALDLGGTNFRVLLVRVTTGVQITSEIYSIPETVAQGSGQQLFDHIVDCIVDFQQKQGLSGQSLPLGFTFSFPCRQLGLDQGILLNWTKGFKASDCEGQDVVSLLREAITRRQAVELNVVAIVNDTVGTMMSCGYEDPRCEIGLIVGTGTNACYMEELRNVAGVPGDSGRMCINMEWGAFGDDGSLAMLSTRFDASVDQASINPGKQRFEKMISGMYLGEIVRHILLHLTSLGVLFRGQQIQRLQTRDIFKTKFLSEIESDSLALRQVRAILEDLGLPLTSDDALMVLEVCQAVSQRAAQLCGAGVAAVVEKIRENRGLEELAVSVGVDGTLYKLHPRFSSLVAATVRELAPRCVVTFLQSEDGSGKGAALVTAVACRLAQLTR”, the “soluble on expression in E. coli” value was “soluble”.
“MKALNREVIEYFKEHVNPGFLEYRKSVTAGGDYGAVEWQAGSLNTLVDTQGQEFIDCLGGFGIFNVGHRNPVVVSAVQNQLAKQPLHSQELLDPLRAMLAKTLAALTPGKLKYSFFCNSGTESVEAALKLAKAYQSPRGKFTFIATSGAFHGKSLGALSATAKSTFRKPFMPLLPGFRHVPFGNIEAMRTALNECKKTGDDVAAVILEPIQGEGGVILPPPGYLTAVRKLCDEFGALMILDEVQTGMGRTGKMFACEHENVQPDILCLAKALGGGVMPIGATIATEEVFSVLFDNPFLHTTTFGGNPLACAAALATINVLLEQNLPAQAEQKGDMLLDGFRQLAREYPDLVQEARGKGMLMAIEFVDNEIGYNFASEMFRQRVLVAGTLNNAKTIRIEPPLTLTIEQCELVIKAARKALAAMRVSVEEA”: the “soluble on expression in E. coli” value is recorded as “not soluble”.
Turning to “MAHHHHHHVDDDDKMYQSAIKVEPASPPYYSEKTQLYNKPHEEPSNSLMAIECRVCGDKASGFHYGVHACEGCKGFFRRTIRLKLIYDRCDLNCRIHKKSRNKCQYCRFQKCLAVGMSHNAIRFGRMPQAEKEKLLAEISSDIDQLNPESADLRALAKHLYDSYIKSFPLTKAKARAILTGKTTDKSPFVIYDMNSLMMGEDKIKFKHITPLQEQSKEVAIRIFQGCQFRSVEAVQEITEYAKSIPGFVNLDLNDQVTLLKYGVHEIIYTMLASLMNKDGVLISEGQGFMTREFLKSLRKPFGDFMEPKFEFAVKFNALELDDSDLAIFIAVIILSGDRPGLLNVKPIEDIQDNLLQALELQLKLNHPESSQLFAKLLQKMTDLRQIVTEHVQLLQVIKKTETDMSLHPLLQEIYKDLY”, the “soluble on expression in E. coli” value was “soluble”.
Consider “RQIQKKIESGELKAAPEIVEADAECCGQHEICEKESLLAAVSKKIEYYDDEELDRFRGRPSNGYNEEEVEEFREIMYTCKEDEVAGWSRSLQLRGIELPDELKDELFLIVGERRFK”, for which the “soluble on expression in E. coli” value is given as “not soluble”.
Regarding “MGSDKIHHHHHHAQDNPFKPEWFVSGGINGVTALNGSANNILGGKVSGGVWLNKIIGLRVDAEAGNVWLKGGYNAVTVGAGADILVNLMKNYTDEDRKFRLNAIFGLGYNYYSFGDDYPRLSKTNTMSGNFSLQAAFRLNSHLSIFAEPGIKISTKFYDIENKDDVFAGGMMTVGVIYKF”, the “soluble on expression in E. coli” value is “not soluble”.
“MAHHHHHHMECGYSNEGKFHQVVLTIKEKIEKHDLSKWKDIVKPEEGPKYDEYFERLLREGNQEKDKNGKDTEGKDTHEKNTHDEGVHGKDDLSAEQVEKTPSHEYQQTEDEENPKKFQLNKEFFDKINNKEKFYFLLNIKEMMETSWLLAQKRLEGIKVEEKSKSVNVQDLLNYSQKIADTTCAPPECDNINDRIMHQEYYPNYHFLNFVNVEEIHLSKLFQLQKYSTVCFPPIITIQEGKDNMLVLHISCSTPHATIYYKVNDETNEQIYNTDEKPKIRKRKKINVYAWSVKNGHIKSRISCISKSYKVEEDDSFSLSDNFPNKDQGEQPSGFSKTGTECNAPGSKPSQITNVFKNLGFLLSRKKEKTEESSSNGDSSSEA”: the “soluble on expression in E. coli” value is recorded as “not soluble”.
